# Assay results from publication PMC4303232.
# Target: FADD (UniProt Q13158)
# Test: anti-flag immunoprecipitation, immunoblot
# Conditions: reference: wild type; sites S116
substance,measurement,value
PEA15 (from UniProt Q15121) S116A,binding against the reference,weaker
